Measurements published in patent US20190284293A1 (Bristol-Myers Squibb, published 2019).

B1: CD73.4-IgG2.3-plusTHT (antibody)
heavy: QVQLVESGGGVVQPGRSLRLSCAASGFTFSNYGMHWVRQAPGKGLEWVAVILYDGSNKYYPDSVKGRFTISRDNSKNTLYLQMNSLRAEDTAVYYCARGGSSWYPDSFDIWGQGTMVTVSSASTKGPSVFPLAPCSRSTSESTAALGCLVKDYFPEPVTVSWNSGALTSGVHTFPAVLQSSGLYSLSSVVTVPSSNFGTQTYTCNVDHKPSNTKVDKTVERKSCVETHTCPPCPAPPVAGPSVFLFPPKPKDTLMISRTPEVTCVVVDVSHEDPEVQFNWYVDGVEVHNAKTKPREEQFNSTFRVVSVLTVVHQDWLNGKEYKCKVSNKGLPAPIEKTISKTKGQPREPQVYTLPPSREEMTKNQVSLTCLVKGFYPSDIAVEWESNGQPENNYKTTPPMLDSDGSFFLYSKLTVDKSRWQQGNVFSCSVMHEALHNHYTQKSLSLSPGK
light: not shown
B2: CD73.4-IgG2.3-plusGGG (antibody)
heavy: QVQLVESGGGVVQPGRSLRLSCAASGFTFSNYGMHWVRQAPGKGLEWVAVILYDGSNKYYPDSVKGRFTISRDNSKNTLYLQMNSLRAEDTAVYYCARGGSSWYPDSFDIWGQGTMVTVSSASTKGPSVFPLAPCSRSTSESTAALGCLVKDYFPEPVTVSWNSGALTSGVHTFPAVLQSSGLYSLSSVVTVPSSNFGTQTYTCNVDHKPSNTKVDKTVERKSCVEGGGCPPCPAPPVAGPSVFLFPPKPKDTLMISRTPEVTCVVVDVSHEDPEVQFNWYVDGVEVHNAKTKPREEQFNSTFRVVSVLTVVHQDWLNGKEYKCKVSNKGLPAPIEKTISKTKGQPREPQVYTLPPSREEMTKNQVSLTCLVKGFYPSDIAVEWESNGQPENNYKTTPPMLDSDGSFFLYSKLTVDKSRWQQGNVFSCSVMHEALHNHYTQKSLSLSPGK
light: not shown
B3: CD73.4-IgG2.5-plusTHT (antibody)
heavy: QVQLVESGGGVVQPGRSLRLSCAASGFTFSNYGMHWVRQAPGKGLEWVAVILYDGSNKYYPDSVKGRFTISRDNSKNTLYLQMNSLRAEDTAVYYCARGGSSWYPDSFDIWGQGTMVTVSSASTKGPSVFPLAPSSRSTSESTAALGCLVKDYFPEPVTVSWNSGALTSGVHTFPAVLQSSGLYSLSSVVTVPSSNFGTQTYTCNVDHKPSNTKVDKTVERKCCVETHTCPPCPAPPVAGPSVFLFPPKPKDTLMISRTPEVTCVVVDVSHEDPEVQFNWYVDGVEVHNAKTKPREEQFNSTFRVVSVLTVVHQDWLNGKEYKCKVSNKGLPAPIEKTISKTKGQPREPQVYTLPPSREEMTKNQVSLTCLVKGFYPSDIAVEWESNGQPENNYKTTPPMLDSDGSFFLYSKLTVDKSRWQQGNVFSCSVMHEALHNHYTQKSLSLSPGK
light: not shown
B4: CD73.4-IgG2.5G1-KH (antibody)
heavy: QVQLVESGGGVVQPGRSLRLSCAASGFTFSNYGMHWVRQAPGKGLEWVAVILYDGSNKYYPDSVKGRFTISRDNSKNTLYLQMNSLRAEDTAVYYCARGGSSWYPDSFDIWGQGTMVTVSSASTKGPSVFPLAPSSRSTSESTAALGCLVKDYFPEPVTVSWNSGALTSGVHTFPAVLQSSGLYSLSSVVTVPSSNFGTQTYTCNVDHKPSNTKVDKTVERKCCVECPPCPAPPVAGPSVFLFPPKPKDTLMISRTPEVTCVVVDVSHEDPEVKFNWYVDGVEVHNAKTKPREEQYNSTYRVVSVLTVLHQDWLNGKEYKCKVSNKALPAPIEKTISKAKGQPREPQVYTLPPSREEMTKNQVSLTCLVKGFYPSDIAVEWESNGQPENNYKTTPPVLDSDGSFFLYSKLTVDKSRWQQGNVFSCSVMHEALHNHYTQKSLSLSPGK
light: not shown
B5: CD73.4-IgG2.5 (antibody)
heavy: QVQLVESGGGVVQPGRSLRLSCAASGFTFSNYGMHWVRQAPGKGLEWVAVILYDGSNKYYPDSVKGRFTISRDNSKNTLYLQMNSLRAEDTAVYYCARGGSSWYPDSFDIWGQGTMVTVSSASTKGPSVFPLAPSSRSTSESTAALGCLVKDYFPEPVTVSWNSGALTSGVHTFPAVLQSSGLYSLSSVVTVPSSNFGTQTYTCNVDHKPSNTKVDKTVERKCCVECPPCPAPPVAGPSVFLFPPKPKDTLMISRTPEVTCVVVDVSHEDPEVQFNWYVDGVEVHNAKTKPREEQFNSTFRVVSVLTVVHQDWLNGKEYKCKVSNKGLPAPIEKTISKTKGQPREPQVYTLPPSREEMTKNQVSLTCLVKGFYPSDIAVEWESNGQPENNYKTTPPMLDSDGSFFLYSKLTVDKSRWQQGNVFSCSVMHEALHNHYTQKSLSLSPGK
light: not shown
B6: CD73.4-IgG2.5G1.1f-KH (antibody)
heavy: QVQLVESGGGVVQPGRSLRLSCAASGFTFSNYGMHWVRQAPGKGLEWVAVILYDGSNKYYPDSVKGRFTISRDNSKNTLYLQMNSLRAEDTAVYYCARGGSSWYPDSFDIWGQGTMVTVSSASTKGPSVFPLAPSSRSTSESTAALGCLVKDYFPEPVTVSWNSGALTSGVHTFPAVLQSSGLYSLSSVVTVPSSNFGTQTYTCNVDHKPSNTKVDKTVERKCCVECPPCPAPPVAGPSVFLFPPKPKDTLMISRTPEVTCVVVDVSHEDPEVKFNWYVDGVEVHNAKTKPREEQYNSTYRVVSVLTVLHQDWLNGKEYKCKVSNKALPSSIEKTISKAKGQPREPQVYTLPPSREEMTKNQVSLTCLVKGFYPSDIAVEWESNGQPENNYKTTPPVLDSDGSFFLYSKLTVDKSRWQQGNVFSCSVMHEALHNHYTQKSLSLSPGK
light: not shown
B7: CD73.4-IgG2.3G1-KH (antibody)
heavy: QVQLVESGGGVVQPGRSLRLSCAASGFTFSNYGMHWVRQAPGKGLEWVAVILYDGSNKYYPDSVKGRFTISRDNSKNTLYLQMNSLRAEDTAVYYCARGGSSWYPDSFDIWGQGTMVTVSSASTKGPSVFPLAPCSRSTSESTAALGCLVKDYFPEPVTVSWNSGALTSGVHTFPAVLQSSGLYSLSSVVTVPSSNFGTQTYTCNVDHKPSNTKVDKTVERKSCVECPPCPAPPVAGPSVFLFPPKPKDTLMISRTPEVTCVVVDVSHEDPEVKFNWYVDGVEVHNAKTKPREEQYNSTYRVVSVLTVLHQDWLNGKEYKCKVSNKALPAPIEKTISKAKGQPREPQVYTLPPSREEMTKNQVSLTCLVKGFYPSDIAVEWESNGQPENNYKTTPPVLDSDGSFFLYSKLTVDKSRWQQGNVFSCSVMHEALHNHYTQKSLSLSPGK
light: not shown
B8: CD73.6-IgG2-C219S-IgG1.1f (antibody)
heavy: QVQLVESGGGVVQPGRSLRLSCAASGFTFSNYGMHWVRQAPGKGLEWVAVILYDSSNKYYPDSVKGRFTISRDNSKNTLYLQMNSLRAEDTAVYYCARGGSSWYPDSFDIWGQGTMVTVSSASTKGPSVFPLAPCSRSTSESTAALGCLVKDYFPEPVTVSWNSGALTSGVHTFPAVLQSSGLYSLSSVVTVPSSNFGTQTYTCNVDHKPSNTKVDKTVERKSCVECPPCPAPPVAGPSVFLFPPKPKDTLMISRTPEVTCVVVDVSHEDPEVKFNWYVDGVEVHNAKTKPREEQYNSTYRVVSVLTVLHQDWLNGKEYKCKVSNKALPSSIEKTISKAKGQPREPQVYTLPPSREEMTKNQVSLTCLVKGFYPSDIAVEWESNGQPENNYKTTPPVLDSDGSFFLYSKLTVDKSRWQQGNVFSCSVMHEALHNHYTQKSLSLSPGK
light: not shown
notes: also called CD73.6-IgG2CS IgG1.1f; mAb-CD73.6-Vh-hHC-IgG2-C219S-IgG1.1f

Each binder was assayed against T1, human CD73 on cells (human, UniProt P21589 27-549) (assay: cell-based or functional assay).
T1 sequence: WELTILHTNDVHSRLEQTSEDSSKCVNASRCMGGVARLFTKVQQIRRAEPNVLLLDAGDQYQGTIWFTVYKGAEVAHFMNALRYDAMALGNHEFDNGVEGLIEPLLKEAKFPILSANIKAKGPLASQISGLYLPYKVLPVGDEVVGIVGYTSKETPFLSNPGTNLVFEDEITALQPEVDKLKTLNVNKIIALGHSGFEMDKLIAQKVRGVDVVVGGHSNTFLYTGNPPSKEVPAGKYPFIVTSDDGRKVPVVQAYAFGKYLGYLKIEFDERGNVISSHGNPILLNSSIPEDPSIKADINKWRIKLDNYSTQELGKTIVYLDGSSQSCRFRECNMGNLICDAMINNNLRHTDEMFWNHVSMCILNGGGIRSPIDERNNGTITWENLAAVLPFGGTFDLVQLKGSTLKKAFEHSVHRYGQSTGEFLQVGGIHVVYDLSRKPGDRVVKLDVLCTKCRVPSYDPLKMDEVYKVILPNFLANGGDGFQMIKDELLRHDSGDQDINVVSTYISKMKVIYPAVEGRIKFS

Question: How did the “CD73 Inhibition S:B (inhibition versus background)” value turn out when B1 was run?
Answer: The value was 33.

Question: With B2 as the binder, how does the “CD73 Inhibition EC50 (nM), cAMP assay, Calu6” value (shortened to “CD73 Inhibition EC50 (nM)”) read?
Answer: The value was 1.26 nM.

Question: B3 was tested. Which “CD73 Inhibition EC50 (nM)” value did it give?
Answer: Its value is 0.9 nM.

Question: And the “CD73 Inhibition S:B (inhibition versus background)” value?
Answer: Its value is 44.

Question: For B4, which “CD73 Inhibition EC50 (nM)” value is on record?
Answer: Its value is 0.44 nM.

Question: And the “CD73 Inhibition S:B (inhibition versus background)” value?
Answer: Its value is 42.

Question: B5 was tested. Which “CD73 Inhibition EC50 (nM)” value did it give?
Answer: The value was 2.17 nM.

Question: And the “CD73 Inhibition S:B (inhibition versus background)” value?
Answer: The value was 51.

Question: Which results are given for B6?
Answer: CD73 Inhibition EC50 (nM), cAMP assay, Calu6: 0.87 nM; CD73 Inhibition S:B (inhibition versus background): 45

Question: What does the source list for B7?
Answer: CD73 Inhibition EC50 (nM), cAMP assay, Calu6: 1.7 nM; CD73 Inhibition S:B (inhibition versus background): 52

Each binder was assayed against T2, N-hCD73-his (N-terminal domain of human CD73, residues 26-336, His tag) (human, UniProt P21589 26-336) (assay: SPR, mAb captured on protein A).
T2 sequence: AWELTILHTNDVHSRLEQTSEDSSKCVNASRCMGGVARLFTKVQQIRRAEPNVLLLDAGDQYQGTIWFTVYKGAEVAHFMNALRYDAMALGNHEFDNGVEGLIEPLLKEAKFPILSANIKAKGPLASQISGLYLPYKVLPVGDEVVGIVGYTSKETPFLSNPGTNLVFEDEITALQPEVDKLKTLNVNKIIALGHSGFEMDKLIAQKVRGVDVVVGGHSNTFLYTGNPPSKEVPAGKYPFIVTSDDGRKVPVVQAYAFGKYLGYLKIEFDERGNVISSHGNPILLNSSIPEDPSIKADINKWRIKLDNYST
Protocol: For these experiments, protein A (Pierce) was immobilized to a density of 3000-4000 RU on flow cells 1-4 of a CM5 sensor chip (GE Healthcare) using standard ethyl(dimethylaminopropyl) carbodiimide (EDC)/N-hydroxysuccinimide […] chemistry, with ethanolamine blocking, in a running buffer of 0.01 M HEPES pH 7.4, 0.15 M NaCl, 3 mM EDTA, 0.005% v/v tween 20. […] The running buffer for the kinetic experiments was 10 mM sodium phosphate, 130 mM sodium chloride, 0.05% tween 20, pH 7.1. The surfaces were regenerated after each cycle using two 30 s pulses of 10 mM glycine pH 1.5 at a flow rate of 30 μl/min. Sensogram data was double-referenced and then fitted to a 1:1 Langmuir model using Biacore T100 evaluation software v2.0.4, to determine the association rate constant (ka), the dissociation rate constant (kd), and the equilibrium dissociation constant (KD).

Question: Which results are given for B8?
Answer: Kd: 0.72 nM; koff: 0.00022 s⁻¹; kon: 300000 M⁻¹ s⁻¹
